Like-named read-outs stand apart in the source and are kept apart here. Blank lines part the entries; values can stand above or below the binder they belong to.
B4: Antibody 136 (antibody, human IgG1, kappa, V domains shown)
VH: EVQLVQSGAEVKKPGATVKISCKASGYTFSDYYLHWVRQAPEKGLEWMGWIDPENGDTEYAPKFQGRVTITADTSTDTGYLELSSLRSEDTAVYYCAANKELRYFDVWGQGTLVTVSS
VL: DIQMTQSPSSVSASVGDRVTITCRASQSISINLHWYQQKPGKAPKLLIYFASQSISGVPSRFSGSGSGTDFSLTINSLQTEDFATYYCQQSNSFPLTFGGGTKVEIKR
notes: Humanized PMA204 (1RZ7 framework)

Columns and labels:
human IL-12 [1] = target: T1, human IL-12 (human, UniProt P29460 23-328; P29459 23-219); assay: ELISA, coated IL-12
T1 construct: Recombinant (Peprotech); FLAG-tagged IL-12 in the flow cytometry assays, biotinylated in the IL-12Rβ2 assay; also called hIL-12
T1 sequence 1: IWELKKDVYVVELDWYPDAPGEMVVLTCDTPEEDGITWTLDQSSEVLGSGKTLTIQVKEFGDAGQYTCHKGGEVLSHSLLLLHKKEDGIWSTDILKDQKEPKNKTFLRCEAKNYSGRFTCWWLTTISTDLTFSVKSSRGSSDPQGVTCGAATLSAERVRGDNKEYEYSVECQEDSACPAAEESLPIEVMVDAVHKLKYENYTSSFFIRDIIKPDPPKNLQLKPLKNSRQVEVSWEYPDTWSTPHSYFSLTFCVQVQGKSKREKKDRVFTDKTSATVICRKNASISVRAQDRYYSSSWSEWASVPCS
T1 sequence 2: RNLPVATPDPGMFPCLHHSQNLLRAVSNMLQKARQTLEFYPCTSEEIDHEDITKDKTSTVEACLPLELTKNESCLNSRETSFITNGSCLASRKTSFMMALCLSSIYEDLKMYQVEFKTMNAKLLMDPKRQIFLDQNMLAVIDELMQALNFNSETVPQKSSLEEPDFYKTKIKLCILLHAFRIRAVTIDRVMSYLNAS
Description: (§1) IL-12 (Peprotech), IL-23 (Ebioscience™), IL-12p40 (Ebioscience™) or IL-12p80 (Peprotech), was diluted to 1 μg/mL in carbonate coating buffer ([…] pH 9.6) and coated onto a 96 well plate (Nunc™, Maxisorp™) overnight at 4° C. The plate was then washed three times with wash buffer (0.01M PBS pH 7.2, 0.05% Tween-20) and then three times with 0.01M PBS pH 7.2. The wells were then blocked by adding 200 μl of blocking buffer (1% w/v BSA in 0.01 M PBS pH 7.2) to each well and incubating the plate at 25° C. for 1 hour. The antibody was diluted in antibody diluent (1% w/v BSA, 0.05% Tween-20 in 0.01M PBS pH 7.2) sufficient to generate a titration curve. The wells were incubated with the antibody for 1 hour at 25° C. The plate was then washed as previously described. Goat anti-human immunoglobulin G (H+L) antibody HRP conjugate (Zymed®) at 1:2000 in antibody diluent was used to detect bound primary antibody. Goat anti-murine immunoglobulin antibody HRP conjugate (Dako) at 1:2000 in antibody diluent was used to detect bound murine antibody. After incubation at 25° C. for 1 hour the plate was washed again as previously described. TMB substrate solution (Zymed®) was added to each well and the colour allowed to develop; the reaction was terminated by adding 1M HCl to the wells. The absorbance of each well was determined at 450 nm (ref. 620 nm).

human IL-23 [2] = target: T2, human IL-23 (human, UniProt P29460 23-328; Q9NPF7 20-189); assay: ELISA, coated IL-23
T2 construct: Recombinant (Ebioscience); HIS-tagged in flow cytometry, biotinylated in some assays; also called hIL-23; rhIL-23
T2 sequence 1: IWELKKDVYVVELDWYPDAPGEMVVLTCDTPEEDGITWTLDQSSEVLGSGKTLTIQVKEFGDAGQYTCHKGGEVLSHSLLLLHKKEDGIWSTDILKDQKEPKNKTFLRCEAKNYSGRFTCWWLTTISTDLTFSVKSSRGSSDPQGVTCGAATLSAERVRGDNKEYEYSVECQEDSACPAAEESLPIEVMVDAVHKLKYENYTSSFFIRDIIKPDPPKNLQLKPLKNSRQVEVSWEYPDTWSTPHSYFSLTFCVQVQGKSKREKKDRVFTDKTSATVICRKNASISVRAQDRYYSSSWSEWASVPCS
T2 sequence 2: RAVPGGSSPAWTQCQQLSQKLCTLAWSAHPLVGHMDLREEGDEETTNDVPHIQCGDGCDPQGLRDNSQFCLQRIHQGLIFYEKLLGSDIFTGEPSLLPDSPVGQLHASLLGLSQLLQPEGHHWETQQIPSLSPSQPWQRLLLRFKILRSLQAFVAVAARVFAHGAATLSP
Description: as §1

human IL-12 [3] = target: T1, human IL-12; assay: neutralization ELISA: IL-12 preincubated with antibody, its binding to coated IL-12Rβ2/Fc is blocked
Method in brief: (§2)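 IL-12Rβ2/Fc chimera at 5 ug/ml in carbonate buffer was coated overnight at 4° C and blocked with 1% BSA for 1 hour at 25° C. Biotinylated IL-12 was preincubated with titrated antibody for 2 hours, then added to the wells for 2 hours at 25° C. Detection used Streptavidin HRP 1:5000 and TMB, stopped with 1M HCl, with absorbance read at 450 nm (reference 620 nm). IC50 was read off the curve.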

Antibody 136 [4] = target: B4; assay: SPR control: PMA204 injected over Antibody 136 captured on Protein A, no cytokine
Description: (§3) Protein A (Thermo) was immobilized onto a CM5 sensor chip using a BIAcore 3000. Chimeric or humanized antibody at 5 ug/mL in HBS-P (GE Healthcare) was then injected for 1 min at a flow rate of 20 ul/min. IL-12 or IL-23 was then injected over the surface at 5 ug/mL in HBS-P for 1 min at a flow rate of 20 ul/min. Murine antibody was then injected at 5 ug/mL in HBS-P for 1 min at a flow rate of 20 ul/min. Controls in which IL-12 or IL-23 was replaced with HBS-P, and in which the murine antibody was replaced with HBS-P were also performed. All data was substrated from a control run in which IL-12 or IL-23 or the murine antibody was tested for background binding to the Protein A surface.

human IL-23 [5] = target: T2, human IL-23; assay: neutralization ELISA: IL-23 preincubated with antibody, its binding to coated IL-23R is blocked
Method in brief: (§4)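 The IC50 was taken from a curve in a plate assay in which biotinylated IL-23, preincubated with titrated antibody, bound His-tagged IL-23R coated on the wells. The receptor, made in HEK-293E cells, was coated in carbonate buffer overnight at 4° C and blocked with 1% BSA. The IL-23 was used at 50 ng/ml, and the IL-23 and antibody mix stayed in the wells for 2 hours at 25° C. Signal came from Streptavidin HRP at 1:5000 with TMB, read at 450 nm with a 620 nm reference.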

human IL-23 [6] = target: T2, human IL-23; assay: SPR, IgG on Protein A
Description: (§5) Using a SPR 3000, Protein A was immobilized onto FC1 and FC2 (or alternatively FC3 and FC4) of a CM5 research grade sensor chip using amine coupling, giving approximately […] RU. FC1 was used a blank throughout the experiments. The experiments were run in HBS-P buffer (SPR). At a flow rate of 20 μl/min, 20 μl of 5 μg/mL of antibody was passed over FC2. IL-12, IL-23 or IL-12p40 (Peprotech) were passed over the surface of FC1 and FC2 at concentrations ranging from 66 nM to 2 nM. Regeneration of the surface was performed using 10 mM Glycine, pH 1.0. The sensorgram data from FC2 was subtracted from FC1 and a buffer only control. The curves were fitted using a 1:1 Langmuir equation to generate the kd, ka and KD values. All curves were fitted with a χ² of less then 2.0 where possible.

human IL-12 [7] = target: T1, human IL-12; assay: SPR, IgG on Protein A
Description: as §5

human IL-12p40 [8] = target: T3, human IL-12p40 (human, UniProt P29460 23-328); assay: ELISA, coated IL-12p40
T3 construct: p40 monomer; also called p40 subunit
T3 sequence: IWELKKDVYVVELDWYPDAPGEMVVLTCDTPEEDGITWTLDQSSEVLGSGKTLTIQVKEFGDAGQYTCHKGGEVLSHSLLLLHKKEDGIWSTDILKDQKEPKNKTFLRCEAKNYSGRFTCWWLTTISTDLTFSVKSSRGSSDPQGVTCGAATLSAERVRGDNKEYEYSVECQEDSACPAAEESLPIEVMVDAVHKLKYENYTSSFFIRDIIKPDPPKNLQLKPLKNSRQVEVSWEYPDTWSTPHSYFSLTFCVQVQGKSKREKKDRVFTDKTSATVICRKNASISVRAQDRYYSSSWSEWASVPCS
Description: as §1

human IL-12p40 [9] = target: T3, human IL-12p40; assay: SPR, IgG on Protein A
Description: as §5

human IL-23 [10] = target: T2, human IL-23; assay: SPR, IgG on Protein A; remark: listed apart in the source
Description: as §5

human IL-12 [11] = target: T1, human IL-12; assay: SPR, IgG on Protein A; remark: listed apart in the source
Description: as §5

Antibody 136 [12] = target: B4; assay: SPR control: PMA202 injected over Antibody 136 captured on Protein A, no cytokine
Description: as §3

human IL-12 [13] = target: T1, human IL-12; assay: neutralization ELISA: IL-12 preincubated with antibody, its binding to coated IL-12Rβ2/Fc is blocked; remark: listed apart in the source
Method in brief: as §2

human IL-23 [14] = target: T2, human IL-23; assay: neutralization ELISA: IL-23 preincubated with antibody, its binding to coated IL-23R is blocked; remark: listed apart in the source
Method in brief: as §4

human IL-12 [15] = target: T1, human IL-12; assay: sandwich ELISA: IL-12 held by coated PMA202, Antibody 136 titrated, anti-human Fc-HRP
Method in brief: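 Capture antibody at 1 μg/mL was coated overnight at 4° C and blocked with 1% BSA. IL-12 at 0.5 μg/ml was bound for 1 hour at 25° C, followed by half-log serial dilutions of test antibody for 1 hour. Bound antibody was detected with goat anti-human IgG Fc-HRP (1:2000) and TMB, stopped with 1 M HCl, and optical density read at 450 nm (reference 620 nm). EC50 was read off the curve.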

human IL-23 [16] = target: T2, human IL-23; assay: SPR, IgG on Protein A; remark: listed apart in the source
Description: (§6) Using SPR technology the kₐ and kd and the KD of various humanized antibodies was determined.
as §5

human IL-12 [17] = target: T1, human IL-12; assay: SPR, IgG on Protein A; remark: listed apart in the source
Description: as §6, §5

human IL-23 [18] = target: T2, human IL-23; assay: sandwich ELISA: IL-23 held by coated PMA202, Antibody 136 titrated, anti-human Fc-HRP

B2: Antibody 1 (antibody, human IgG1, kappa, V domains shown)
VH: EVQLQQSGADLVRSGASIKLSCTASGFNIKDYYMHWVKQRPEQGLEWIGWIDPENGDTEYAPKFQGKATMTADTSSNTAYLQLSSLTSEDTAVYYCNACKELRYFDVWGAGTTVTVSS
VL: DIVLTQSPATLSVTPGDSVSLSCRASQSISINLHWYQQKSHESPRLLIKFASQSISGIPSRFSGYGSGTDFTLSINSVETEDFGRYFCQQSNSWPLTFGAGTKLELKR
notes: Chimeric PMA204, human IgG1/kappa
Kd (human IL-23 [6]): 0.0513 nM
koff (human IL-23 [6]): 0.000146 s⁻¹
kon (human IL-23 [6]): 2.85e+06 M⁻¹ s⁻¹
Kd (human IL-12 [7]): 0.0795 nM
koff (human IL-12 [7]): 0.000132 s⁻¹
kon (human IL-12 [7]): 1.67e+06 M⁻¹ s⁻¹
IC50 (read off the curve) (human IL-12 [3]): ~0.4 µg/mL
EC50 (read off the curve) (human IL-12p40 [8]): ~0.03 µg/mL
IC50 (read off the curve) (human IL-23 [5]): ~1 µg/mL
Kd (human IL-12p40 [9]): 0.0663 nM
koff (human IL-12p40 [9]): 7.12e-05 s⁻¹
kon (human IL-12p40 [9]): 1.07e+06 M⁻¹ s⁻¹
Kd (human IL-23 [10]): 0.0446 nM
koff (human IL-23 [10]): 0.000114 s⁻¹
kon (human IL-23 [10]): 2.55e+06 M⁻¹ s⁻¹
Kd (human IL-12 [11]): 0.0477 nM
koff (human IL-12 [11]): 6.45e-05 s⁻¹
kon (human IL-12 [11]): 1.36e+06 M⁻¹ s⁻¹

Binder: B4
IC50 (read off the curve) (human IL-12 [13]): ~0.4 µg/mL
IC50 (read off the curve) (human IL-23 [14]): ~1 µg/mL
EC50 (read off the curve) (human IL-12 [15]): ~0.1 µg/mL
Kd (human IL-23 [16]): 0.105 nM
koff (human IL-23 [16]): 0.000795 s⁻¹
kon (human IL-23 [16]): 7.55e+06 M⁻¹ s⁻¹
Kd (human IL-12 [17]): 0.197 nM
koff (human IL-12 [17]): 0.000997 s⁻¹
kon (human IL-12 [17]): 5.05e+06 M⁻¹ s⁻¹
EC50 (read off the curve) (human IL-23 [18]): ~0.06 µg/mL

Next, values leading:

EC50 (read off the curve) (human IL-12 [1]): ~0.02 µg/mL
EC50 (read off the curve) (human IL-23 [2]): ~0.01 µg/mL
IC50 (read off the curve) (human IL-12 [3]): ~0.2 µg/mL
binding result (Antibody 136 [4]): no binding
IC50 (read off the curve) (human IL-23 [5]): ~0.6 µg/mL
B1: PMA204 (antibody, V domains shown)
VH: EVQLQQSGADLVRSGASIKLSCTASGFNIKDYYMHWVKQRPEQGLEWIGWIDPENGDTEYAPKFQGKATMTADTSSNTAYLQLSSLTSEDTAVYYCNACKELRYFDVWGAGTTVTVSS
VL: DIVLTQSPATLSVTPGDSVSLSCRASQSISINLHWYQQKSHESPRLLIKFASQSISGIPSRFSGYGSGTDFTLSINSVETEDFGRYFCQQSNSWPLTFGAGTKLELKR
notes: Murine hybridoma antibody, murine IgG1kappa

binding result (Antibody 136 [12]): no binding
B3: PMA202 (antibody, V domains shown)
VH: QIQLVQSGPELKKPGETVKISCKASGYTFTNYGMNWVKQAPGKGLKWMGWINTYTGEPTYADDFKGRFAFSLETSASTAYLQINNFKNEDTATYFCARSLSTMITTTFAYWGQGTLVTVSS
VL: SIVMTQTPKFLLVSAGDRVTITCKASQSVSNDVAWYQQKPGQSPKLLIYYASNRYTGVPDRFTGSGYGTDFTFTISTVQAEDLAVYFCQQDYSSPYTFGGGTKLEIKR
notes: as for B1

— patent publication US20110262445A1 (CEPHALON AUSTRALIA, published 2011)
